Assay [1] deals with human cardiac troponin C, wild type (human, UniProt P63316 1-161). As to the kind of experiment: NMR titration; 1H-15N HSQC spectra at 37 °C of WT or C84Y cTnC in the Ca2+-bound (primed) state, without peptide and with increasing concentrations of peptide (15, 40, 70, 120, 150 and 200 μM); normalized 1H chemical shifts against peptide concentration. Particulars: both partners purified.

The target in assay [2] is human cardiac troponin C C84Y (human, UniProt P63316 1-161, C84Y). Described as above. As to conditions: both partners purified.

B1: inhibitory cardiac TnI peptide iTnI128-147 (peptide)
peptide: Ac-LTQKIFDLRGKFKRPTLRRV-NH2
notes: source: synthetic peptide (Genscript, purity higher than 95%)
What is called Kd is the concentration at which binding is half-saturated. Take B1: the Kd in assay [1] was 59 ± 3.6 µM; in assay [2] it was 66 ± 5.5 µM.

The values are drawn from paper PMC8171346, “Anomalous structural dynamics of minimally frustrated residues in cardiac troponin C triggers hypertrophic cardiomyopathy†” (Chemical Science, 2021).
